Source: patent US20200054764A1, “MEDICAL USE OF ANTI-C MET ANTIBODY-CYTOTOXIC DRUG CONJUGATE” (priority 2016, published 2020)

What was measured:
[1] = tested on: a variety of human tumor cell lines; details: background statement; cited from earlier work
[2] = target: human c-Met on MKN45 cells (human) (UniProt P08581); test: cell-based or functional assay
human c-Met-His = target: T1, human c-Met-His (Homo sapiens, UniProt P08581); test: ELISA binding of c-Met antibody to c-Met antigen; details: hybridoma clones, ELISA, OD450
T1 construct: His tag (6xHis) (C); made in house; host or cells: 293F cells (Invitrogen, Cat # R790-07); vector pEE6.4; c-Met gene template origene RC217003
T1 sequence (P08581 with tags, fused parts or gaps limits assumed): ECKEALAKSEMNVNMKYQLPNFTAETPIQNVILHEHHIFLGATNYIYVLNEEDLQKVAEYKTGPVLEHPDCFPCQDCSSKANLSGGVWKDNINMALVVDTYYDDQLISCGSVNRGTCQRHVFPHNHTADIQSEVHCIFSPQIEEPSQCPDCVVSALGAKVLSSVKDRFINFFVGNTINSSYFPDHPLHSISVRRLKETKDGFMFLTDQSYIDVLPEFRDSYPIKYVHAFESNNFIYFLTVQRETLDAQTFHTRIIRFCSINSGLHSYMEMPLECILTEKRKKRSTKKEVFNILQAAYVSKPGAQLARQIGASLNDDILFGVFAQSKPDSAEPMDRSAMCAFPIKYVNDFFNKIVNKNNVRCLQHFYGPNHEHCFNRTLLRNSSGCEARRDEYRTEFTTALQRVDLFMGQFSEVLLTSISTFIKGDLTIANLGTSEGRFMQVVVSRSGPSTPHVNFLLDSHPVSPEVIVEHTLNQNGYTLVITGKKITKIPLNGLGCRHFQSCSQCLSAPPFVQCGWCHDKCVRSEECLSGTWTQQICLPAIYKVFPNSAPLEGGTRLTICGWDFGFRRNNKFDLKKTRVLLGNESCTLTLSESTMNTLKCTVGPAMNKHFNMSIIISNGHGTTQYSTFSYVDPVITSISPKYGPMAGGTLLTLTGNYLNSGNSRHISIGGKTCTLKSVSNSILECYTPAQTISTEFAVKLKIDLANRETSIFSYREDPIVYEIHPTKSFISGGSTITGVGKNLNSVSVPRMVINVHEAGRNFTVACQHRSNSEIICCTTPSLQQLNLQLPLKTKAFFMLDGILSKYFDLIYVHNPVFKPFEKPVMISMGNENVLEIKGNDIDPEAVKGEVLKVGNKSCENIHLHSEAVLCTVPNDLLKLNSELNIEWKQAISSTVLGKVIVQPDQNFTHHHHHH
Description: This experiment uses enzyme linked immunosorbent assay to detect affinity of c-Met antibody (including supermatant of hybridonma or recombinant expressed monoclonal antibodies) to c-Met antigen in vitro.
Experimental procedures: Coating buffer (PBS; Hyclone, Cat No.: SH30256.01B) was used to dilute antigen (human c-Met-His, example 1) to 2 μg/mL, which was added to a 96-well microplate at 100 μL/well (Costar 9018, Cat No.:03113024) and incubated overnight at 4° C. […] The plate was read with plate reader at 450 nm.
Murine anti-human c-Met monoclonal cell lines were obtained by immunizing mice, fusion of spleen cells, and screening of hybridomas. […] After the first booster immunization, mice serum was collected during 7 to 10 days after each booster immunization, and the titer was detected by ELISA (Methods were described in Example 2).
After immunization, mice with a serum titer higher than 1:10^5 were selected for cell fusion. Mouse B-cells and myeloma cells (SP2/0, ATCC number:CRL-1581™) were prepared respectively in aseptic conditions and counted. […] The next day, positive clones were detected by ELISA (see Methods in Example 2).

[3] = target: T2, human c-Met ECD his tag (Human c-Met ECD-His) recombinant protein (human, UniProt P08581 25-932); test: ELISA, plate coated with human c-Met-His at 2 ug/mL
T2 construct: extracellular domain; It was expressed in 293F cells; Natural c-Met is cleaved into alpha and beta subunits; also called human c-Met-His; not shown: C-terminal His tag
T2 sequence (P08581 25-932): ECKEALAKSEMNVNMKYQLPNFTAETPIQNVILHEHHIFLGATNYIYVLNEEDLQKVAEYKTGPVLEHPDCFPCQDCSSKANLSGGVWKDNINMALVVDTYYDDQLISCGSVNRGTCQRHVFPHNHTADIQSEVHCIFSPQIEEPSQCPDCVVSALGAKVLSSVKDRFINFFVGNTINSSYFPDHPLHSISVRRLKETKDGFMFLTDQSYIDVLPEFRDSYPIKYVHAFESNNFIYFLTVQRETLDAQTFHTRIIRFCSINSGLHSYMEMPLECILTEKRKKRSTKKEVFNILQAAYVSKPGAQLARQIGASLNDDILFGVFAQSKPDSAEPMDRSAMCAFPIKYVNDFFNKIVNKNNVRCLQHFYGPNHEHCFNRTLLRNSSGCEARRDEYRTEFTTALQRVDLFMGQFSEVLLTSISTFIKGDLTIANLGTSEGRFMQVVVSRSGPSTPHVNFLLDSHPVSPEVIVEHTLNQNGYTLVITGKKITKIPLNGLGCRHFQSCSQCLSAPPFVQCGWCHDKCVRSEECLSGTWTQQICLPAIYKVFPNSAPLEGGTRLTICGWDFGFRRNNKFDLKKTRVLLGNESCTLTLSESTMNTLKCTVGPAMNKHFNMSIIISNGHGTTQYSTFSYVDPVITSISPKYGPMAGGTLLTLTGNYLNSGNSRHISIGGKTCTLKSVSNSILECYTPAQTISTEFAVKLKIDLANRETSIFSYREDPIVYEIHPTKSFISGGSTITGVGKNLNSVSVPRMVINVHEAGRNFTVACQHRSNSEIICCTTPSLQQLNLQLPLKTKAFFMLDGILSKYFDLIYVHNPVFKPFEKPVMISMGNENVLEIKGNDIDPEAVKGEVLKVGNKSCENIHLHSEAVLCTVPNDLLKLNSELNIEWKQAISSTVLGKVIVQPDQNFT

human c-Met on MKN45 cells (human), sequence (P08581 25-1390): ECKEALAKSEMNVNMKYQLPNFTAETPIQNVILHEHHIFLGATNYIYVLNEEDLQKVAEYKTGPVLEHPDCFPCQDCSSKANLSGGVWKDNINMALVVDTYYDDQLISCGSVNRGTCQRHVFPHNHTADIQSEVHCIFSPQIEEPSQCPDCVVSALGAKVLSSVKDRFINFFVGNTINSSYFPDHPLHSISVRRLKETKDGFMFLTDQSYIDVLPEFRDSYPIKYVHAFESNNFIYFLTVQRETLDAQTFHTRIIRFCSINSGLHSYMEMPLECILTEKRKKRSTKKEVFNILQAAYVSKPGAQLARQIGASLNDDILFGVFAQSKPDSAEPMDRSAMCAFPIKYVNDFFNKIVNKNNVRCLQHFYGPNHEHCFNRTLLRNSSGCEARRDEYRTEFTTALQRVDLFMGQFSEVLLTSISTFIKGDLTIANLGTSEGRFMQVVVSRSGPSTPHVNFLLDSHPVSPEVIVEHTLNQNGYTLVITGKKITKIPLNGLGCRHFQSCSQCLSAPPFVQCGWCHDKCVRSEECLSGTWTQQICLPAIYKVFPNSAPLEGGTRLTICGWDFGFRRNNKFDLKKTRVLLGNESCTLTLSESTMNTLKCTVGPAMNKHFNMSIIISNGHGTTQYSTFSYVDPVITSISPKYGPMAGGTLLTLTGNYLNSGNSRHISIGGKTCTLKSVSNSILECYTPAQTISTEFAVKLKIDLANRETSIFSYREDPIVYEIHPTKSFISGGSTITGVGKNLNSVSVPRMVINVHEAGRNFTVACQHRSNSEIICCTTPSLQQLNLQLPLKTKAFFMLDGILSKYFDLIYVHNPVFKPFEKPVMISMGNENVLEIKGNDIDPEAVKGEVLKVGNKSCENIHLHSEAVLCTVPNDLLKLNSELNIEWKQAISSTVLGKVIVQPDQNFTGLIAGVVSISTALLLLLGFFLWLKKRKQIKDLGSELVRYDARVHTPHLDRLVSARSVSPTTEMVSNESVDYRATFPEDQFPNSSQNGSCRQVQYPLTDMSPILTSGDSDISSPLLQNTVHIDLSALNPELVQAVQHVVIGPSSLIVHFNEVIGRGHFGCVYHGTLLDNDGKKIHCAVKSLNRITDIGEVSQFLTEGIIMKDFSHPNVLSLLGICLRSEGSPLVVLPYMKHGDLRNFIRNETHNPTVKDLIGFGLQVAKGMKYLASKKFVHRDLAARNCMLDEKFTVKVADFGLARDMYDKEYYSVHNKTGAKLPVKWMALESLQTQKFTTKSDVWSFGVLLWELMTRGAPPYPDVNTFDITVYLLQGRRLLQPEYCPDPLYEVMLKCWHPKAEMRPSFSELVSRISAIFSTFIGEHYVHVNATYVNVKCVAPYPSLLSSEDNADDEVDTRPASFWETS

For CC[C@H](C)C([C@@H](CC(=O)N1CCC[C@H]1[C@H](OC)[C@@H](C)C(=O)N[C@H](C)[C@@H](O)c1ccccc1)OC)N(C)C(=O)[C@@H](NC(=O)[C@@H](NC)C(C)C)C(C)C (some centres unmarked) [MMAE, Monomethyl auristatin E], the “inhibitory activities against a variety of human tumor cell lines” value [1] is given as “less than one nanomolar”.

For hIgG (control) (antibody), the endocytosis % (0 h) [2] was 0%, the endocytosis % (0.5 h) [2] was -0.9% and the endocytosis % (1 h) [2] was -4.4%. It also gave an endocytosis % (2 h) [2] of -4.9% and an endocytosis % (4 h) [2] of 3.6%.

B1: Ab-5 (antibody, V domains shown)
VH: QVQLKQSGPGLVQPSQSLSITCTVSGFSLPNYGVHWVRQSPGKGLEWLGVIWSGGSTNYAAAFVSRLRISKDNSKSQVFFEMNSLQADDTAVYYCARNHDNPYNYAMDYWGQGTTVTVSS
VL: DIVLTQSPGSLAVYLGQRATISCRANKSVSTSTYNYLHWYQQKPGQPPKLLIYLASNLASGVPARFSGSGSGTDFTLNIHPLEEEDAATYYCQHSRDLPPTFGAGTKLELKR
For B1, the “Detection Results (OD450)” value (human c-Met-His) was 1.64.

B2: Ab-11 humanized antibody (antibody, human IgG2, kappa, V domains shown)
VH: QVQLVESGGGVVQPGRSLRLSCAASGFTLPNYGVHWVRQAPGKGLEWLAVIWSGGSTNYAAAFVSRLTISKDNSKNTVYLQMNSLRAEDTAVYYCARNHDNPYNYAMDYWGQGTTVTVSS
VL: DIVLTQSPDSLAVSLGERATINCRANKSVSTSTYNYLHWYQQKPGQPPKLLIYLASNLASGVPDRFSGSGSGTDFTLTISSLQAEDVAVYYCQHSRDLPPTFGQGTKLEIKR
notes: Full-length humanized antibody
With B2 the EC50 [3] was 0.2 nM.
